Test results reported in article PMC5099578, “A structural and functional study on the 2-C-methyl-D-erythritol-4-phosphate cytidyltransferase (IspD) from Bacillus subtilis” (Scientific Reports, 2016).

B1: BsIspD (Bacillus subtilis subsp. subtilis str. 168) (protein)
chain: MSYDVVIPAAGQGKRMKAGRNKLFIELKGDPVIIHTLRVFDSHRQCDKIILVINEQEREHFQQLLSDYPFQTSIELVAGGDERQHSVYKGLKAVKQEKIVLVHDGARPFIKHEQIDELIAEAEQTGAAILAVPVKDTIKRVQDLQVSETIERSSLWAVQTPQAFRLSLLMKAHAEAERKGFLGTDDASLVEQMEGGSVRVVEGSYTNIKLTTPDDLTSAEAIMESESGNKHV
notes: full length (699 bp gene, 232 residues built); pGEX-6P-1, expressed in E. coli, GST tag cut with PreScission protease; homodimer
B2: EcIspD (Escherichia coli K-12) (protein)
chain: ATTHLDVCAVVPAAGFGRRMQTECPKQYLSIGNQTILEHSVHALLAHPRVKRVVIAISPGDSRFAQLPLANHPQITVVDGGDERADSVLAGLKAAGDAQWVLVHDAARPCLHQDDLARLLALSETSRTGGILAAPVRDTMKRAEPGKNAIAHTVDRNGLWHALTPQFFPRELLHDCLTRALNEGATITDEASALEYCGFHPQLVEGRADNIKVTRPEDLALAEFYLTRTIHQENT
notes: pET22b, C-terminal His6 tag removed with thrombin; expressed in E. coli BL21 (DE3)

Assays:
Assay in all cases: purified protein
purified protein [1] = substrate: C[C@](O)(CO)[C@H](O)COP(=O)(O)O; type: biochemical, Bacillus subtilis; conditions: CTP co-substrate, 1 mM MgCl2, 0.1 M Tris-HCl pH 8.0, 1 mM DTT, 30 °C, MEP varied 10-400 μM, paper inconsistent: text gives 132.8 for MEP, Table 2 prints it under CTP
purified protein [2] = substrate: Nc1ccn([C@@H]2O[C@H](COP(=O)(O)OP(=O)(O)OP(=O)(O)O)[C@@H](O)[C@H]2O)c(=O)n1; type: biochemical, Bacillus subtilis; conditions: MEP co-substrate, 1 mM MgCl2, 0.1 M Tris-HCl pH 8.0, 1 mM DTT, 30 °C, CTP varied 10-500 μM, paper inconsistent: text gives 124.8 for CTP, Table 2 prints it under MEP
purified protein [3] = substrate: Nc1ccn([C@@H]2O[C@H](COP(=O)(O)OP(=O)(O)OP(=O)(O)O)[C@@H](O)[C@H]2O)c(=O)n1; conditions: MEP co-substrate, 1 mM MgCl2, 0.1 M Tris-HCl pH 8.0, 1 mM DTT, 30 °C, CTP varied 10-500 μM, paper inconsistent: text gives 291.5 for CTP (kcat 2307.7), Table 2 prints it under MEP (kcat 2307.2)

Protein	Km (purified protein [1]) [µM]	kcat (purified protein [1]) [s⁻¹]	kcat/Km (purified protein [1]) [M⁻¹ s⁻¹]	Km (purified protein [2]) [µM]	kcat (purified protein [2]) [s⁻¹]	kcat/Km (purified protein [2]) [M⁻¹ s⁻¹]	Km (purified protein [3]) [µM]	kcat (purified protein [3]) [s⁻¹]	kcat/Km (purified protein [3]) [M⁻¹ s⁻¹]
B1	132.8 ± 29	71.2	536000	124.8 ± 19	36.3	291000	–	–	–
B2	–	–	–	–	–	–	291.5 ± 44	38.5	132000
